Experimental data from patent EP4796557A1 (Unovel (Shanghai) Biopharma Co., Ltd., dated 2025).

Assays:
[1] = biological target: T1, antigen protein TF (UniProt P13726 33-251, limits assumed); experiment: BLI (Fortebio), antibody on ProA sensor, 1:1 model
T1 construct: Soluble TF used in ELISA coating and BLI; also called TF protein; Tissue Factor

[2] = biological target: T1, antigen protein TF; experiment: ELISA, TF coated at 1 µg/mL, HRP-Protein A detection
[3] = biological target: T2, Tissue Factor on MDA-MB-231 cells (UniProt P13726 33-295, limits assumed); experiment: flow cytometry on MDA-MB-231 cells, Alexa Fluor 488 anti-human IgG
T2 construct: whole, on cells
T2 sequence (P13726 33-295 limits assumed): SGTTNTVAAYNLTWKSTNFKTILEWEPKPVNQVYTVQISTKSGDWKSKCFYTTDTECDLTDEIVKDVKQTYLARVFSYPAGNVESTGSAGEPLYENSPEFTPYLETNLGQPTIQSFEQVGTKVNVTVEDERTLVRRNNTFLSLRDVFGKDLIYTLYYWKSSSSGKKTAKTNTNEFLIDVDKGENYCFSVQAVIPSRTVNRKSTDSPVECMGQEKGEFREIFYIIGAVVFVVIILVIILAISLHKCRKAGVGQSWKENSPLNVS

T1 sequence (P13726 33-251 limits assumed): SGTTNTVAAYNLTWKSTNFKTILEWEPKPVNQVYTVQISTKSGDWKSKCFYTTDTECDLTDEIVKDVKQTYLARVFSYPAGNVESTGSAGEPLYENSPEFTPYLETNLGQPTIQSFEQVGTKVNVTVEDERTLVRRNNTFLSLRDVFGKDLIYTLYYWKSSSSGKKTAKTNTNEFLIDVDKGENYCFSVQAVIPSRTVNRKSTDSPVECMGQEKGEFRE

B1: h1849-H2L1 (antibody, human IgG1, kappa, V domains shown)
VH: EVQLVESGGGVVQPGRSLRLSCAASGFTFSDYNMAWIRQAPGKGLEWVAAIIYDGTRTYYRDSVKGRFTISRDNSKSTLYLQMDSLRAEDTAVYYCATGDSYTNFAYWGQGTLVTVSS
VL: EIVLTQSPTFLSASVGDRVTITCRASSSLSYMHWYQQKPGTSPKLLIYETSKLQSGVPSRFSGSGSGTSFTLTIDSLQPEDFATYYCQQGNSYPRTFGGGTKVEIKR
notes: also called humanized anti-TF antibody
Q: With B1 as the binder, how does the Kd [1] read?
A: The Kd was 0.43 nM.

Q: And the koff [1]?
A: The koff was 0.000169 s⁻¹.

Q: And the kon [1]?
A: Its kon is 392000 M⁻¹ s⁻¹.

Q: And the EC50 [2]?
A: Its EC50 is 0.0155 µg/mL.

Q: What about the EC50 [3] of the same binder?
A: The EC50 was 1.13 µg/mL.

B2: h1849-H3L3 (antibody, human IgG1, kappa, V domains shown)
VH: EVQLVESGGGVVQPGRSLRLSCAASGFTFSDYNMAWIRQAPGKGLEWVAAIIYDGTRTYYRDSVKGRFTISRDNSKSTLYLQMNSLRAEDTAVYYCATGDSYTNFAYWGQGTLVTVSS
VL: EIVLTQSPTSLSASVGDRVTITCRASSSLSYMHWYQQKPGTSPKLLIYETSKLESGVPSRFSGSGSGTDFTLTIDSLQPEDFATYYCQQGNSYPRTFGGGTKVEIKR
notes: as for B1
Q: B2 was tested. Which koff [1] did it give?
A: The koff was less than 1e-07 s⁻¹.

Q: And the kon [1]?
A: The kon was 324000 M⁻¹ s⁻¹.

Q: What about the EC50 [2] of the same binder?
A: Its EC50 is 0.0191 µg/mL.

Q: And the EC50 [3]?
A: The EC50 was 2.3 µg/mL.
